# Results from the nanobody polyreactivity screen of Harvey et al. (2022).
# Assay: yeast display, Sf9 membrane polyspecificity reagent, FACS + sequencing; frameworks hold sequencing errors
# Outline: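 Nanobodies from a synthetic yeast display library (Saccharomyces cerevisiae BJ5465), induced 36–48 hours with galactose, were stained 1 hour at 4 °C with 10% biotinylated, detergent-solubilized Sf9 membrane reagent, enriched on streptavidin microbeads, then FACS-sorted. Anti-HA (expression) and streptavidin (reagent binding) fluorescence set low and high (top ~1%) gates. Polyreactivity labels come from the gate of origin. Genes were colony-PCR amplified, MiSeq 2 × 250 sequenced and filtered by CDR length.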
row,Sequence,polyreactivity (PSR sort gate)
1,QVQLVESGGGLVQAGGSLRLSCAASGSTFYYYSMGWNRQAPGKERELVAAISYRGGTTYYADSVKGRFTISRDNAKNTVYLQMNSLKPEDTAVYYCAAGVSWYRPGSYTGGYWGQGTQVTVSS,high polyreactivity
2,QVQLVESGGGLVQAGGSLRLSCAASGSTGLNAMGWYRQAPGKERELVAAITWSGGSTYYADSVKGRFTISRDNAKNTVYLQMNSLKPVDTAVYYCAAQYTWYKSRYGYWGQGTQVTVSS,high polyreactivity
3,QVQLVESGGGLVQAGGSLRLSCAASGSTHVYAMGWYRQAPGKERELVAAISLNTGSTYYADSVKGRFTISRDNAKNTVYLQMNSLKPEDTAVYRLNYWGQGTQVTVSS,low polyreactivity
4,QVQLVESGGGLVQAGGSLRLSCAASGSTIDYYAMGWYRQAPGKERELVAAISWSGGSTYYADSVKGRFTISRDNAKNTVYLQMYSLKTEDTAVYYCAAYSAFYTGSYNGWSDYDYWGQGTQVTVSS,low polyreactivity
5,QVQLVESGGGLVQAGGSLRLSCAASGSTIEDYAMGWYRQAPGKERELVAAITSGDSTNYADSVKGRFTISRDNAKNTVYLQMISLKPEDTAVYYCFDLSNRYAVRYDYWGQGTQVTVSS,high polyreactivity
6,QVQLVESGGGLVQAGGSLRLSCAASGSTIEDYAMGWYRQAPGKERELVAAITSGDSTNYADSVKGRFTISRDNAKNTVYLQMNSLKPEDTAVYYCAARLRYSFWYWDDYWGQGTQVTVSS,high polyreactivity
7,QVQLVESGGGLVQAGGSLRLSCAASGSTIFLYDMGWYRQAPGKERELVAAITISGGSTYYADSVKGRFTISRDNAKNTVYLQMNSLKPEDTAVYDCNADYQWYLGGYDYWGQGTQVTVSS,high polyreactivity
8,QVQLVESGGGLVQAGGSLRLSCAASGSTIFSYAMGWYRQAPGKERELVAAITYRSSRTYYADSVKGRFTISRDNAKNTVYLQMNSLKPEDTAVYYCAAGYFSYRRYDYWGQGTQVTVSS,high polyreactivity
9,QVQLVESGGGLVQAGGSLRLSCAASGSTIGDNAMGWYRQAPGIERELGASMSWSGASTYYADSVKGRFTISRDNAKNTVYLQMNCLKPDDTAVYYCGVYYSYYSHLYHMLFYYWGQGTQVTVSS,low polyreactivity
10,QVQLVESGGGLVQAGGSLRLSCAASGSTILAYALGWYRPAPGKERELVAAIRRGGTSTYSADSLKGRFTISRDKAKKTVYLQINSLQPEDTAVYYCNKAYITKRGVSGSNDYWGQGTQVTVSS,low polyreactivity
11,QVQLVESGGGLVQAGGSLRLSCAASGSTILQNAMGWYRQAPGKERELVAAISRSGGSTYYADSVKGRFTISRDNAKNTVYLQMNSLKPEDTAVYYCARRYWPGSAYWIYDYWGQGTQVTVSS,high polyreactivity
12,QVQLVESGGGLVQAGGSLRLSCAASGSTIPSNAMGWYRQAPGKERELVASITYTDGTTRYADSVKGRFTISRDNAKNTVYLQMNSLKPEDTAVYYCNAVYYREGMDYWGQGTQVTVSS,low polyreactivity
13,QVQLVESGGGLVQAGGSLRLSCAASGSTIPSYALGWYRPAPGKERELGASITYSDGTTRYADSVKARFTISRDNAKNTVYLQMNSLKPEDTAVYYCNAVYYREGMDYWGQGTQVTVSS,low polyreactivity
14,QVQLVESGGGLVQAGGSLRLSCAASGSTIPSYAMGWYRQAPGKERELVASITYSDGTTRYADSVKGRFTISRDNAMNPVYFQMNSLKPEDSAVYYCNAVYYREGMDYWGQGTQVTVSS,low polyreactivity
15,QVQLVESGGGLVQAGGSLRLSCAASGSTIPTNAMGWYSQAPGKERELVAAITSTGSTYADSVKGRFTISRDNAKNTDYLQMNSLKPEDTAVYYCAADTQWTTPYDYWGQGTPVTVSS,low polyreactivity
16,QVQLVESGGGLVQAGGSLRLSCAASGSTIRDYAMGWYRQAPGKERELVAVIDNSGGRTYYADSVKGRFTISRDNAKNTVYLQMNSLKAEDTAVYYCNTRRIAQYGYWGQGTQVTVSS,high polyreactivity
17,QVQLVESGGGLVQAGGSLRLSCAASGSTIRFYYMGWYRQEPGKERELVAAITGIGDSTYYSDSVKGRFTISRDNAKNSVYLQMNSLKPEDTAVYYCAAERYYYTARLRYWRYFWGQGTQVTVSS,high polyreactivity
18,QVQLVESGGGLVQAGGSLRLSCAASGSTIRNYAMGWYRQAPGKERELVAAISSGGRTYYADSVKGRFTISRDNAKNTVYLQMNSLKPEDTAVYYCNTPYTVRGRYTYDYWGQGTQVTVSS,high polyreactivity
19,QVQLVESGGGLVQAGGSLRLSCAASGSTIRTNTMGWYRQAPGKERELVAAITKSGGSTYYADSVKGRFTISRDNAKNTVYLQMNSLKPEDTAVYYCAARVLYRSGLRGDYWGQGTQVTVSS,high polyreactivity
20,QVQLVESGGGLVQAGGSLRLSCAASGSTIRYYAMGWYRQAPGKEREFVAAITRSGGRTYYADSVKGRFTISRDNAKNTVYLQMNSLKPEDTADYYCAKVLYSPIGKYDYWGQGTQVTVSS,high polyreactivity
21,QVQLVESGGGLVQAGGSLRLSCAASGSTIRYYAMGWYRQAPGKERQLVAYITTSGGTYYADSVKGRFTISRDNAKNTVYLQMHSLKPEDTAVYYCAARRQDYTYYRIYHFDYWGQGTQVTVSS,high polyreactivity

row,Sequence,polyreactivity (PSR sort gate)
1,QVQLVESGGGLVQAGGSLRLSCAASGSTISINALGWSRQAPGKERELVAAITGGDTNTYYADSVKGRFTISRDTAKNTVYLLMNSLKPEDTAVYYCNARIYDYAGAGTWSYDSWGQGTQVTVSS,low polyreactivity
2,QVQLVESGGGLVQAGGSLRLSCAASGSTISPNSMGWYRQAPGKERELVAAISSDASTNYADSVKGRFTISRDNAKNTVYLQRNCLTPDDTALYYCAADLWTLIYLTDTYGHWGQGTQVTVSS,low polyreactivity
3,QVQLVESGGGLVQAGGSLRLSCAASGSTISRNAMGWYRQAPGKERELVAAITSRSGRTYYADSVKGRFTISRDNAKNTVYLQMNSLKPEDTAVYYCAATVYQGAYTYQFYWGQGTQVTVSS,high polyreactivity
4,QVQLVESGGGLVQAGGSLRLSCAASGSTISYYAMGWYRQAPGKERELVAAISSRGVITYYADSVKGRFTISRDNAKNTVYLQMNSLKPEDTAVYYCNVDSAWYPYETEDYWGQGTQVTVSS,low polyreactivity
5,QVQLVESGGGLVQAGGSLRLSCAASGSTITSYAMRLYRQAPGKDRELVASISRSGGRTYYADSVKGRFTISRDNAKNTVYLQMNSLKPEDTAVYYCAADDYSATTRYYYWGQGTQVTVSS,high polyreactivity
6,QVQLVESGGGLVQAGGSLRLSCAASGSTITYYTMGWYRQAPGKERELVAAISGSGGRTYYADSVKGRFTISRDNEKNTVYLQMNSLKPEDTAVYYCAAVYQLSRYDYWGQGTQVTVSS,high polyreactivity
7,QVQLVESGGGLVQAGGSLRLSCAASGSTIVPNTMGWYRQAPGKERELVAGITSGGSTYYADSVKGRFTISRDNAKNTVYLQMNSLKPEDTAVYYCAADDGSTANEKLIHEYNYWGQGTQVTVSS,low polyreactivity
8,QVQLVESGGGLVQAGGSLRLSCAASGSTIVVNAMGWYRQAPGKERELVAAISSNGGSYYADSVKGRFTISRDNAKNTVYLQMNSLKPEDTAVYYCAADSREEGDYWGQGTQVTVSS,low polyreactivity
9,QVQLVESGGGLVQAGGSLRLSCAASGSTIWSNAMVWYRQAPGKERELVAVISGGTSTNYADSVKGRFTISRDNAKNTVYLQMNSLKPEDTAVFYCAADWGSYLILINDTDMDYWGQGTQVTVSS,low polyreactivity
10,QVQLVESGGGLVQAGGSLRLSCAASGSTIYDNAMGWYRQAPGKERELVAAITWSVGRTYYADSVKGRFTISRDNAKNTVYLQMNSLKPEDTAVYYCAARSQDRSYFQVFVSDTPYNYWGQGTQVTVSS,low polyreactivity
11,QVQLVESGGGLVQAGGSLRLSCAASGSTIYGYAMGSYRQAPGKERELVAAISISGGGTYYADSVKGRFTISRDNAKNTVYIQMNSLKPEDTAVYYCARRYFWGQGTQVTVSS,low polyreactivity
12,QVQLVESGGGLVQAGGSLRLSCAASGSTLAKYAMGWYRQAPGKERELVAAISWSGGRTYYADSVKGRFTISRDNAKNTVYLQMNSLKPEDTAVYYCAARARSSRTYHDDYWGQGTQVTVSS,high polyreactivity
13,QVQLVESGGGLVQAGGSLRLSCAASGSTLALYAMGWYRQAPGKERELVAVITSGGSTDYADSVKGRFTISRDNAKNTVYLQMNSLKPEDTAVYYCAAEGRPGKYSYVYWGQGTQVTVSS,low polyreactivity
14,QVQLVESGGGLVQAGGSLRLSCAASGSTLATYTMGWYRQAPGKERELVAAISFGGSTYYADSVKGRFTISRDNAKNTVYLQMNSLKPEDTAVYYCAVYGDSYWGASYYSDGYWGQGTQVTVSS,low polyreactivity
15,QVQLVESGGGLVQAGGSLRLSCAASGSTLDGNTMGWYRQAPGKERELVAAISRSGTSTYYADSVKGRFTISRDNAKNTVYLQMNSLKPEDTAVYYCNAEASDLYYVYLEYDYWGQGTQVTVSS,low polyreactivity
16,QVQLVESGGGLVQAGGSLRLSCAASGSTLDRNTMGWYRQAPGKERELVAAITWSGGRTYYADSVKGRFTITRDNAKNTVYLQMNSLKPEDTAVYYCNKDYWKRPVDEYDYWGQGTQVTVSS,high polyreactivity
17,QVQLVESGGGLVQAGGSLRLSCAASGSTLDYYAIGWYRQAPGKEREFVAGIDSAGSTNYADSVKGRFTISRDNAKNTVYLQMNSLKTGRYRGLYCNVGKTITTYAFPTFDYWGQGTQVTVSS,low polyreactivity
18,QVQLVESGGGLVQAGGSLRLSCAASGSTLEPNAMGWYRQAPGKERELVAAITIGGSTYYADSVKGRFTISRDNAKNTVYLQMNSLKPEDTAVYYCAAKSTVQRRRHTNYDYWGQGTQVTVSS,high polyreactivity
19,QVQLVESGGGLVQAGGSLRLSCAASGSTLFDYTMGWYRQAPGNVRELVAAISSSGITDYADSVKGRFTISRDNAQNTVYLQMNSLKPDETAVYYCNARSQKATRYDYWGQGTQVTVSS,high polyreactivity
20,QVQLVESGGGLVQAGGSLRLSCAASGSTLFTYAMGWYRQAPGKERELVAAITSSGSTYYADSVKGRFTISRDNAKNTVYFQMNSLKPEDTAVYYCAVPGYRYTKYYYWGQGTQVTVSS,low polyreactivity
